# In US10800813 (Bicycle, dated 2020):
# Where two headings read alike, the source gives them in different places. Numbered stars: 1 amine (or outer) side, 2 acyl side, 3 side chain; on linkers, the order of the positions; unused ones are H or OH. Bridge positions count the residues as written; N and C are the ends. Square brackets hold non-standard residues; d marks the D form. Ends that are not written are not given here. Phe(4-guanidino) = N=C(N)Nc1ccc(C[C@H](N)C(=O)O)cc1; TBMB = c1c(C[*:1])cc(C[*:3])cc1C[*:2]; NMeR = CN[C@@H](CCCNC(=N)N)C(=O)O; hArg = N=C(N)NCCCC[C@H](N)C(=O)O; β3hR = N=C(N)NCCC[C@H](N)CC(=O)O; Cit = NC(=O)NCCC[C@H](N)C(=O)O; Dpg = CCCC(N)(CCC)C(=O)O; Aze = O=C(O)[C@@H]1CCN1; Abu = CC[C@H](N)C(=O)O; Aib = CC(C)(N)C(=O)O; βAla = NCCC(=O)O
# Tests used:
# Assay in all cases: enzyme inhibition assay
# [1] = biological target: T1, human plasma Kallikrein (human, UniProt P03952 20-638, limits assumed)
# T1 construct: also called hPK; human PK
# T1 sequence (P03952 20-638 limits assumed): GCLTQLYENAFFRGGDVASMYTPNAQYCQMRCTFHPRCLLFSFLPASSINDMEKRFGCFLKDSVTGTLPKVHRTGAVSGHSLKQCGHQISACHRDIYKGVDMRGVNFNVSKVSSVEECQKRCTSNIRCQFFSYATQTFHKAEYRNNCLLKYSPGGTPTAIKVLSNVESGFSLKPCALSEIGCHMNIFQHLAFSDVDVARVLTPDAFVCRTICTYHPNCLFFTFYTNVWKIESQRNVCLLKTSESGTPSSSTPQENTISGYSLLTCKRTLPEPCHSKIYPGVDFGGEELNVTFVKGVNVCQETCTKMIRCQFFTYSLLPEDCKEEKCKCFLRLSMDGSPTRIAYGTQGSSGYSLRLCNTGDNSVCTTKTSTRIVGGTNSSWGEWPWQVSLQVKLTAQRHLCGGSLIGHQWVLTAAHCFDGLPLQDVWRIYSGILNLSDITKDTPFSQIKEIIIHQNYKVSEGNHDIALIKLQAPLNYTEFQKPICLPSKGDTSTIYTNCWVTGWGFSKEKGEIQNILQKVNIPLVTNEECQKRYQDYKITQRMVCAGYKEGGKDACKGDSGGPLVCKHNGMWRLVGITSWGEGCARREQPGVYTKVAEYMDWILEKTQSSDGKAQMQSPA
# [2] = biological target: T1, human plasma Kallikrein; remark: listed apart in the source
# [3] = biological target: T1, human plasma Kallikrein; remark: listed apart in the source
# [4] = biological target: T1, human plasma Kallikrein; remark: listed apart in the source
# [5] = biological target: T1, human plasma Kallikrein; remark: listed apart in the source
# [6] = biological target: T1, human plasma Kallikrein; remark: listed apart in the source
binder,measurement,setting,value
Ac-CSW[dP]ARCLHQDLC-NH2 (linker 1-7-13 via TBMB; SMILES CC(=O)N[C@H]1CSCc2cc3cc(c2)CSC[C@H](NC(=O)[C@H](CCCNC(=N)N)NC(=O)[C@H](C)NC(=O)[C@H]2CCCN2C(=O)[C@H](Cc2c[nH]c4ccccc24)NC(=O)[C@H](CO)NC1=O)C(=O)N[C@@H](CC(C)C)C(=O)N[C@@H](Cc1c[nH]cn1)C(=O)N[C@@H](CCC(N)=O)C(=O)N[C@@H](CC(=O)O)C(=O)N[C@@H](CC(C)C)C(=O)N[C@H](C(N)=O)CSC3) [Ac-(06-34-18) D-Pro3],Ki,[1],680 nM
Ac-CSWP[Abu]RCLHQDLC-NH2 (linker 1-7-13 via TBMB; SMILES CC[C@@H]1NC(=O)[C@@H]2CCCN2C(=O)[C@H](Cc2c[nH]c3ccccc23)NC(=O)[C@H](CO)NC(=O)[C@@H](NC(C)=O)CSCc2cc3cc(c2)CSC[C@H](NC(=O)[C@H](CCCNC(=N)N)NC1=O)C(=O)N[C@@H](CC(C)C)C(=O)N[C@@H](Cc1c[nH]cn1)C(=O)N[C@@H](CCC(N)=O)C(=O)N[C@@H](CC(=O)O)C(=O)N[C@@H](CC(C)C)C(=O)N[C@H](C(N)=O)CSC3) [Ac-(06-34-18) Aba4],Ki,[2],0.07 nM
Ac-CSWP[dA]RCLHQDLC-NH2 (linker 1-7-13 via TBMB; SMILES CC(=O)N[C@H]1CSCc2cc3cc(c2)CSC[C@H](NC(=O)[C@H](CCCNC(=N)N)NC(=O)[C@@H](C)NC(=O)[C@@H]2CCCN2C(=O)[C@H](Cc2c[nH]c4ccccc24)NC(=O)[C@H](CO)NC1=O)C(=O)N[C@@H](CC(C)C)C(=O)N[C@@H](Cc1c[nH]cn1)C(=O)N[C@@H](CCC(N)=O)C(=O)N[C@@H](CC(=O)O)C(=O)N[C@@H](CC(C)C)C(=O)N[C@H](C(N)=O)CSC3) [Ac-(06-34-18) D-Ala4],fold reduction of affinity against Ac-06-34-18(TMB)-NH2,[3],7000 fold
same,Ki,[1],1200 nM
Ac-CSWPA[dR]CLHQDLC-NH2 (linker 1-7-13 via TBMB; SMILES CC(=O)N[C@H]1CSCc2cc3cc(c2)CSC[C@H](NC(=O)[C@@H](CCCNC(=N)N)NC(=O)[C@H](C)NC(=O)[C@@H]2CCCN2C(=O)[C@H](Cc2c[nH]c4ccccc24)NC(=O)[C@H](CO)NC1=O)C(=O)N[C@@H](CC(C)C)C(=O)N[C@@H](Cc1c[nH]cn1)C(=O)N[C@@H](CCC(N)=O)C(=O)N[C@@H](CC(=O)O)C(=O)N[C@@H](CC(C)C)C(=O)N[C@H](C(N)=O)CSC3) [Ac-(06-34-18) D-Arg5],fold loss in potency against Ac-06-34-18(TMB)-NH2,[3],300 fold
same,Ki,[1],52 nM
"ACFKNCRVNCA (linker 2-6-10 via TBMB, also called PK119) [3B2]",Ki,[4],9 nM
"ACFKQCRVNCA (linker 2-6-10 via TBMB, also called PK118) [06-94]",Ki,[4],0.7 nM
"ACFDPCRVICA (linker 2-6-10 via TBMB, also called PK124) [3B9]",Ki,[4],90.8 nM
Ac-CSF[Aze]Y[hArg]CLHQDLC-NH2 (linker 1-7-13 via TBMB) [Ac-(06-34-18) Phe2 Aze3 Tyr4 HomoArg5],Ki,[5],0.12 nM
Ac-CSF[Aze]Y[Phe(4-guanidino)]CLHQDLC-NH2 (linker 1-7-13 via TBMB) [Ac-(06-34-18) Phe2 Aze3Tyr4 4GuanPhe5],Ki,[5],0.36 nM
Ac-CSF[Aze]Y[NMeR]CLHQDLC-NH2 (linker 1-7-13 via TBMB; SMILES CC(=O)N[C@H]1CSCc2cc3cc(c2)CSC[C@H](NC(=O)[C@H](CCCNC(=N)N)N(C)C(=O)[C@H](Cc2ccc(O)cc2)NC(=O)[C@@H]2CCN2C(=O)[C@H](Cc2ccccc2)NC(=O)[C@H](CO)NC1=O)C(=O)N[C@@H](CC(C)C)C(=O)N[C@@H](Cc1c[nH]cn1)C(=O)N[C@@H](CCC(N)=O)C(=O)N[C@@H](CC(=O)O)C(=O)N[C@@H](CC(C)C)C(=O)N[C@H](C(N)=O)CSC3) [Ac-(06-34-18) Phe2 Aze3Tyr4 NMeArg5],Ki,[5],0.97 nM
"ACFNKCRVNCA (linker 2-6-10 via TBMB; not fully specified (N-terminus, C-terminus), also called PK121) [06-64 (3x3 peptide of Table 3)]",Ki,[4],4.8 nM
"ACFYKCRVNCA (linker 2-6-10 via TBMB; not fully specified (N-terminus, C-terminus), also called PK120) [06-71]",Ki,[4],15.2 nM
Ac-CSWP[βAla]RCLHQDLC-NH2 (linker 1-7-13 via TBMB; SMILES CC(=O)N[C@H]1CSCc2cc3cc(c2)CSC[C@H](NC(=O)[C@H](CCCNC(=N)N)NC(=O)CCNC(=O)[C@@H]2CCCN2C(=O)[C@H](Cc2c[nH]c4ccccc24)NC(=O)[C@H](CO)NC1=O)C(=O)N[C@@H](CC(C)C)C(=O)N[C@@H](Cc1c[nH]cn1)C(=O)N[C@@H](CCC(N)=O)C(=O)N[C@@H](CC(=O)O)C(=O)N[C@@H](CC(C)C)C(=O)N[C@H](C(N)=O)CSC3) [Ac-(06-34-18) β-Ala4],Ki,[2],17400 nM
"ACFPKCRVACA (linker 2-6-10 via TBMB, also called PK122) [3A3]",Ki,[4],43.1 nM
Ac-CS[dW]PARCLHQDLC-NH2 (linker 1-7-13 via TBMB; SMILES CC(=O)N[C@H]1CSCc2cc3cc(c2)CSC[C@H](NC(=O)[C@H](CCCNC(=N)N)NC(=O)[C@H](C)NC(=O)[C@@H]2CCCN2C(=O)[C@@H](Cc2c[nH]c4ccccc24)NC(=O)[C@H](CO)NC1=O)C(=O)N[C@@H](CC(C)C)C(=O)N[C@@H](Cc1c[nH]cn1)C(=O)N[C@@H](CCC(N)=O)C(=O)N[C@@H](CC(=O)O)C(=O)N[C@@H](CC(C)C)C(=O)N[C@H](C(N)=O)CSC3) [Ac-(06-34-18) D-Trp2],fold loss in potency against Ac-06-34-18(TMB)-NH2,[3],45000 fold
same,Ki,[1],7560 nM
Ac-CSWPA[β3hR]CLHQDLC-NH2 (linker 1-7-13 via TBMB; SMILES CC(=O)N[C@H]1CSCc2cc3cc(c2)CSC[C@H](NC(=O)C[C@H](CCCNC(=N)N)NC(=O)[C@H](C)NC(=O)[C@@H]2CCCN2C(=O)[C@H](Cc2c[nH]c4ccccc24)NC(=O)[C@H](CO)NC1=O)C(=O)N[C@@H](CC(C)C)C(=O)N[C@@H](Cc1c[nH]cn1)C(=O)N[C@@H](CCC(N)=O)C(=O)N[C@@H](CC(=O)O)C(=O)N[C@@H](CC(C)C)C(=O)N[C@H](C(N)=O)CSC3) [Ac-(06-34-18) βhomoArg5],Ki,[6],8.2 nM
"Ac-CSWPACLHQDLC-NH2 (linker 1-6-12 via TBMB; SMILES CC(=O)N[C@H]1CSCc2cc3cc(c2)CSC[C@H](NC(=O)[C@H](C)NC(=O)[C@@H]2CCCN2C(=O)[C@H](Cc2c[nH]c4ccccc24)NC(=O)[C@H](CO)NC1=O)C(=O)N[C@@H](CC(C)C)C(=O)N[C@@H](Cc1c[nH]cn1)C(=O)N[C@@H](CCC(N)=O)C(=O)N[C@@H](CC(=O)O)C(=O)N[C@@H](CC(C)C)C(=O)N[C@H](C(N)=O)CSC3, Residue ranges derived from the stated deletion of Arg5) [Ac-(06-34-18) Δ Arg5]",Ki,[6],> 100000 nM
Ac-CSWP[Aib]RCLHQDLC-NH2 (linker 1-7-13 via TBMB; SMILES CC(=O)N[C@H]1CSCc2cc3cc(c2)CSC[C@H](NC(=O)[C@H](CCCNC(=N)N)NC(=O)C(C)(C)NC(=O)[C@@H]2CCCN2C(=O)[C@H](Cc2c[nH]c4ccccc24)NC(=O)[C@H](CO)NC1=O)C(=O)N[C@@H](CC(C)C)C(=O)N[C@@H](Cc1c[nH]cn1)C(=O)N[C@@H](CCC(N)=O)C(=O)N[C@@H](CC(=O)O)C(=O)N[C@@H](CC(C)C)C(=O)N[C@H](C(N)=O)CSC3) [Ac-(06-34-18) Aib4],Ki,[2],289 nM
Ac-C[Dpg]WPARCLHQDLC-NH2 (linker 1-7-13 via TBMB; SMILES CCCC1(CCC)NC(=O)[C@@H](NC(C)=O)CSCc2cc3cc(c2)CSC[C@H](NC(=O)[C@H](CCCNC(=N)N)NC(=O)[C@H](C)NC(=O)[C@@H]2CCCN2C(=O)[C@H](Cc2c[nH]c4ccccc24)NC1=O)C(=O)N[C@@H](CC(C)C)C(=O)N[C@@H](Cc1c[nH]cn1)C(=O)N[C@@H](CCC(N)=O)C(=O)N[C@@H](CC(=O)O)C(=O)N[C@@H](CC(C)C)C(=O)N[C@H](C(N)=O)CSC3) [Ac-(06-34-18) Dpg1],Ki,[2],1.09 nM
Ac-CSWPA[Cit]CLHQDLC-NH2 (linker 1-7-13 via TBMB; SMILES CC(=O)N[C@H]1CSCc2cc3cc(c2)CSC[C@H](NC(=O)[C@H](CCCNC(N)=O)NC(=O)[C@H](C)NC(=O)[C@@H]2CCCN2C(=O)[C@H](Cc2c[nH]c4ccccc24)NC(=O)[C@H](CO)NC1=O)C(=O)N[C@@H](CC(C)C)C(=O)N[C@@H](Cc1c[nH]cn1)C(=O)N[C@@H](CCC(N)=O)C(=O)N[C@@H](CC(=O)O)C(=O)N[C@@H](CC(C)C)C(=O)N[C@H](C(N)=O)CSC3) [Ac-(06-34-18) Cit5],Ki,[6],7860 nM
Ac-CSWPAR[dC]LHQDLC-NH2 (linker 1-7-13 via TBMB; SMILES CC(=O)N[C@H]1CSCc2cc3cc(c2)CSC[C@@H](NC(=O)[C@H](CCCNC(=N)N)NC(=O)[C@H](C)NC(=O)[C@@H]2CCCN2C(=O)[C@H](Cc2c[nH]c4ccccc24)NC(=O)[C@H](CO)NC1=O)C(=O)N[C@@H](CC(C)C)C(=O)N[C@@H](Cc1c[nH]cn1)C(=O)N[C@@H](CCC(N)=O)C(=O)N[C@@H](CC(=O)O)C(=O)N[C@@H](CC(C)C)C(=O)N[C@H](C(N)=O)CSC3) [Ac-(06-34-18) D-Cys2],Ki,[1],234 nM
